Our source for the other values is article doi:10.1101/2025.10.04.680434.

The test has as its target human 40S ribosomal subunit (human) (UniProt P62269). The experiment in a line: cryo-EM structure.

In the case of “human eIF3 (from UniProt P55884 1-814; Q99613 1-913; O15371 1-548; O75821 1-320; Q13347 1-325) (complex)”, the other was 40%.
